This is an account of results in US10385103B2, “Cell-permeable (ICP)-SOCS3 recombinant protein and uses thereof” (CELLIVERY THERAPEUTICS, INC., priority 2014, dated 2019).

In series [1] the test system is AGS cells. The series can be described thus: Wound cell migration inhibition in gastric carcinoma cells. The series is classed as cell-based. The settings on record: 10 μM 2 hrs, additional 24 hrs. As to the method: AGS cells (gastric cancer cell line) were seeded in a 12 well plate at a density of 2.5×10^5 per well, grown to 90% confluence. Confluent AGS cells were incubated with 10 μM HM#S3B in serum-free medium for 2 hrs prior to changing the growth medium (DMEM/F12, Hyclone, Logan, Utah, USA) and washed twice with PBS, and the monolayer at the center of the well was “wounded” by scraping with a sterilized white pipette tip. Cells were cultured for an additional 24 hrs and cell migration was observed by phase contrast microscopy (Nikon, ECLIPSE Ts2). The migration was quantified by counting the number of cells that migrated from the wound edge into the clear area.

Series [2] relates to Hep3B2.1-7 hepatocellular carcinoma cells. The series can be described thus: Anti-proliferative activity, CellTiter-Glo, hepatocellular carcinoma cells. The series is classed as cell-based, human. The note with it: 10 μM, 96 hrs, compared to vehicle. As to the method: Cells originated from human hepatocellular carcinoma cell (Hep3B, HepG2, Huh-7, SK-Hep1), human normal cells (HEK293, HaCaT, Chang liver cell) and mouse fibroblast (NIH3T3) were purchased from ATCC (Manassas, Va., USA) and KCLB (Seoul, Korea). All the cells were maintained as recommended by the supplier. These cells (3×10^3/well) were seeded in 96 well plates. The next day, cells were treated with DMEM (vehicle) or 10 μM recombinant SOCS3 proteins for 96 hrs in the presence of serum (2%). Proteins were replaced daily. Cell growth and survival were evaluated with the CellTiter-Glo Cell Viability Assay (Promega, Madison, Wis.). Measurements using a Luminometer (Turner Designs, Sunnyvale, Calif.) were conducted following the manufacturer's protocol.
For orientation: In ATP-based viability assays light output follows the ATP content of the culture.

In a further series the test system is IL-6. The series can be described thus: LPS/IFN-γ-induced cytokine secretion in peritoneal macrophages (cytometric bead array), IL-6. The series is classed as cell-based, C3H/HeJ mice. The note with it: 10 μM protein; IFN-γ and LPS. As to the method:
(§1) Peritoneal macrophages were obtained from C3H/HeJ mice (Doo-Yeol Biotech Co. Ltd. Korea) Peritoneal macrophages were incubated with 10 μM SOCS3 recombinant proteins (1:HS3, 2:HM165S3, 3:HM165S3A and 4:HM165S3B, respectively) for 1 hr at 37° C. and then stimulated them with LPS (Lipopolysaccharide)(500 ng/ml) and/or IFN-γ (100 U/ml) without removing iCP-SOCS3 proteins for 3, 6, or 9 hrs. The culture media were collected, and the extracellular levels of cytokine (TNF-α, IL-6) were measured by a cytometric bead array (BD Pharmingen, San Diego, Calif., USA) according to the manufacturer's instructions.

The test system of series [3] is HCCs (Hep3B, HepG2, Huh7 and SK-HEP-1). The series can be described thus: Inhibition of cell cycle progression (PI staining, flow cytometry). The series is classed as cell-based, human. The note with it: 10 uM, 8 hrs. As to the method:
To further determine the effect of iCP-SOCS3 on the tumorigenicity of hepatocellular carcinoma cells, we subsequently investigated whether iCP-SOCS3 regulates cell cycle progression in HCCs (Hep3B, HepG2, Huh7 and SK-HEP-1).
(§2) HCCs and normal cells were treated with 10 uM protein (Non-CP-SOCS3 (HS3B) and iCP-SOSC3 (HM165S3B)) for 8 hrs. After the treatment, cells were washed twice with cold PBS and re-suspended in 1 ml cold PBS, fixed in cold 70% ethanol, washed with cold PBS twice and re-suspended in PI master mix (PI 10 ug/ml (SIGMA, USA), 50 ug/ml RNase A (Invitrogen, USA) in staining buffer) at a final cell density of 2×10^5 cell/ml. The cell mixtures were incubated 30 min in the dark at 4° C. Flow cytometric analysis was immediately performed using a guava easyCyte™ 8 Instrument (Merck Millipore, Darmstadt, Germany).
(In general: Flow cytometry measures light scatter and fluorescence of single cells or particles in a stream.)

For another series, the system named is normal cells. Described as above. The series is classed as cell-based. The note with it: 10 uM, 8 hrs. As to the method: as §2
In the next series the test system is Hep3B2.1-7 tumor. In words: Anti-tumor activity in cell-derived xenograft model. The settings on record: IV 600 μg/head for 21 days. The series is classed as in vivo, Balb/c nu/nu mice.
Series [4] has as its system Bcl-2, NF-κB (p-p65), cleaved caspase-3 in HepG2 cells. The series can be described thus: Immunoblotting of apoptosis-related proteins. The note with it: 10 μM, 24 hr. The series is classed as cell-based, human. As to the method: (§3) Cells were treated for 24 hr with 10 μM HS3B or HM165S3B proteins, lysed in RIPA lysis buffer containing proteinase inhibitor cocktail, incubated for 15 min at 4° C., and centrifuged at 13,000 rpm for 10 min at 4° C. Equal amounts of lysates were separated on 15% SDS-PAGE gels and transferred to a nitrocellulose membrane. The membranes were blocked using 5% skim milk or 5% Albumin in TBST and incubated with the following antibodies: anti-Bcl-2 (Santa Cruz biotechnology), anti-Cleaved Caspase 3 (Cell Signaling Technology), anti-phospho-p65 and anti-p65 (Cell Signaling Technology), then HRP conjugated anti-mouse or anti-rabbit secondary antibody. The expression of each protein was determined by immunoblotting with indicated antibodies. An antibody against β-actin was used as a loading control.
For orientation: A western blot detects proteins with antibodies after separation by electrophoresis.

For series [5], the system named is Bcl-2, NF-κB (p-p65), cleaved caspase-3 in Hep3B cells. The series can be described thus: Immunoblotting of apoptosis-related proteins. The series is classed as cell-based, human. The note with it: 10 μM, 24 hr. As to the method: as §3
Another series concerns HepG2 cells. In words: Transwell migration assay. The series is classed as cell-based, human. The settings on record: 24 hrs, compared with vehicle and non-permeable SOCS3. As for the experimental part: (§4) The lower surface of Transwell inserts (Costar) was coated with 0.1% gelatin, and the membranes were allowed to dry for 1 hr at room temperature. The Transwell inserts were assembled into a 24-well plate, and the lower chamber was filled with growth media containing 10% FBS and FGF2 (40 ng/ml). Cells were added to each upper chamber at a density of 5×10^5, and the plate was incubated at 37° C. in a 5% CO2 incubator for 24 hrs. Migrated cells were stained with 0.6% hematoxylin and 0.5% eosin and counted.

The next series concerns Huh-7 cells. In words: Transwell migration assay. The note with it: 24 hrs, compared with vehicle and non-permeable SOCS3. The series is classed as cell-based, human. As for the experimental part:
as §4

The next series deals with SK-Hep-1 cells. The series can be described thus: Transwell migration assay. The series is classed as cell-based, human. The note with it: 24 hrs, compared with vehicle and non-permeable SOCS3. As to the method:
as §4

The test system of series [6] is AGS cells. The series can be described thus: Antiproliferative activity, CellTiter-Glo Cell Viability Assay. The series is classed as cell-based. The note with it: 10 μM, 96 hrs, 2% serum. As for the experimental part:
Antiproliferative activity were evaluated with the CellTiter-Glo Cell Viability Assay. AGS cells (3×10^3/well) were seeded in 96 well plates. The next day, cells were treated with DMEM (vehicle) or 10 μM HM165S3B, HM15S3B′(V28L) for 96 hrs in the presence of serum (2%). Proteins were replaced daily. Cell growth and survival were evaluated with the CellTiter-Glo Cell Viability Assay (Promega, Madison, Wis.). Measurements using a Luminometer (Turner Designs, Sunnyvale, Calif.) were conducted following the manufacturer's protocol.

The subject of a further series is TNF-α. The series can be described thus: LPS/IFN-γ-induced cytokine secretion in peritoneal macrophages (cytometric bead array), TNF-α. The series is classed as cell-based, C3H/HeJ mice. The settings on record: 10 μM protein; IFN-γ and LPS. As to the method:
as §1

Experimental for Hep3B2.1-7 tumor: Female Balb/c^nu/nu mice (5-week-old, Doo-Yeol Biotech Co. Ltd. Korea) were subcutaneously implanted with Hep3B2.1-7 tumor block (1 mm^3) into the left back side of the mouse. […] Tumor size was monitored by measuring the longest (length) and shortest dimensions (width) once a day with a dial caliper, and tumor volume was calculated as width2×length×0.5.

B1: HM165S3B: His-tagged recombinant protein of aMTD165, human SOCS3 and solubilization domain B; prototype improved cell-permeable SOCS3 (protein)
chain: MGSSHHHHHHSSGLVPRGSHMALAVPVALAIVPVTHSKFPAAGMETSRPLDTSLRLKTFSSKSEYQLVVNAVRKLQESGFYWSAVTGGEANLLLSAEPAGTFLIRDSSDQRHFFTLSVKTQSGTKNLRIQCEGGSFSLQSDPRSTQPVPRFDCVLKLVHHYMETPPPGAPSFPSPPTEPSSEVPEQPSAQPLPGSPPRRAYYIYSGGEKIPLVLSRPLSSNVATLQHLCRKTVNGHLDSYEKVTQLPGPIREFLDQYDAPLGSMAEQSDKDVKYYTLEEIQKHKDSKSTWVILHHKVYDLTKFLEEHPGGEEVLGEQAGGDATENFEDVGHSTDARELSKTYIIGELHPDDRSKIAKPSETL
modifications: Amino acid sequence of HM165S3B
As for B1, the “inhibition of cell migration (wound)” value with AGS cells [1] was “inhibiting migration of gastric carcinoma cells”. Also, the “inhibition of cell migration (wound)” value in the series with AGS cells [1] (listed as aMTD165-fused SOCS3 recombinant protein) was “showed the most effective inhibition of cancer cell migration”. Further, in series [2], the “cytotoxicity to Hep3B2.1-7 cells” value was “over 80%”. The “effect on IL-6 secretion” value with IL-6 is on record as “showed the greatest inhibitory effect on cytokine secretion”. The “cell cycle progression in HCCs” value in series [3] was “efficiently inhibited cell cycle progression”. Also, the “cell cycle progression in normal cells” value in the series with normal cells was “did not inhibit cell cycle progression”. For the same molecule, the “tumor growth inhibition at day 21” value in the series with Hep3B2.1-7 tumor was determined as 80%. Further, the “tumor growth inhibition at day 35” value in the series with Hep3B2.1-7 tumor (2 weeks after termination) is given as 70%. Further, in series [4], the “expression of Bcl-2, HepG2” value is listed as “dramatically reduced”; the “expression of NF-κB (p-p65), HepG2” value is reported as “dramatically reduced”; the “level of cleaved caspase-3, HepG2” value is reported as “increased”. In series [5], the “expression of Bcl-2, Hep3B” value was “dramatically reduced”; the “expression of NF-κB (p-p65), Hep3B” value is reported as “dramatically reduced”; the “level of cleaved caspase-3, Hep3B” value was “increased”. Further, in the series on HepG2 cells, the “Transwell migration, HepG2” value is “significant inhibitory effect on their Transwell migration”. Besides, in the series on Huh-7 cells, the “Transwell migration, Huh-7” value was “significant inhibitory effect on their Transwell migration”. In the series with SK-Hep-1 cells, the “Transwell migration, SK-Hep-1” value is “significant inhibitory effect on their Transwell migration”. Also, the anti-proliferative activity result in the series on AGS cells [6] is “high anti-proliferative effects on gastric carcinoma cells”. The “effect on TNF-α secretion” value in the series with TNF-α was “showed the greatest inhibitory effect on cytokine secretion”.
